This note sets out measurements from paper PMC8519427.

As usually defined, the Kd is the free concentration of one partner at which half of the binding sites on the other are occupied at equilibrium, for simple one-to-one binding. Read a low Kd as a tighter complex. As a reminder, the koff is the rate constant with which the complex falls apart. Low values mean slow dissociation, high ones fast dissociation. By kon is commonly meant the rate constant with which the complex forms. A higher kon goes with faster complex formation.

The assay addresses human α-SNAP with an Avitag and a C-terminal 6xHis tag (human) (UniProt P54920). The assay is described as follows: BLI; Octet RED96, 25°C; 0.25 μM biotinylated α-SNAP loaded on streptavidin biosensor tips; analyte: purified Orai1 or Stim1 fragments at varying concentrations; PBS with 2 mg/ml BSA and 0.02% Tween-20; association 5 min, dissociation 10 min; double referencing; global fit to the 1:1 or 2:1 binding model. (In general: Biolayer interferometry detects binding as a change in optical thickness at a sensor tip.)

human α-SNAP with an Avitag and a C-terminal 6xHis tag (human), sequence (P54920 whole entry, the tested form may be a part): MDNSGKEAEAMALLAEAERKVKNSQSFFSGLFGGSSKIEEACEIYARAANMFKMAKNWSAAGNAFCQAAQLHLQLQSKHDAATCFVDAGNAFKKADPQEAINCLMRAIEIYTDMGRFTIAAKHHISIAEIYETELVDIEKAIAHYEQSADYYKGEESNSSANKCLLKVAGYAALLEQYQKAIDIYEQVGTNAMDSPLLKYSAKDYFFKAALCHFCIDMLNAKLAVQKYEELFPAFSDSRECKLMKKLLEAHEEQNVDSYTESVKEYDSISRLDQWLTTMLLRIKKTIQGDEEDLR

Turning to “purified untagged Orai1 1–103 (from UniProt Q96D31 1-103) (domain or fragment)”, the Kd was determined as 0.763 µM, the koff was found to be 0.000117 s⁻¹ and the kon came to 154 M⁻¹ s⁻¹.

“commercially synthesized Orai1 245–292 peptide (from UniProt Q96D31 245-292)” had a KD1 (2:1 binding model, site 1) of 198 nM; a KD2 (2:1 binding model, site 2) of 0.715 µM; a Kd of 0.369 µM; a koff of 0.000506 s⁻¹. The substance also registered a koff1 (2:1 binding model, site 1) of 5.62e-05 s⁻¹; a koff2 (2:1 binding model, site 2) of 0.0279 s⁻¹; a kon of 1370 M⁻¹ s⁻¹; a kon1 (2:1 binding model, site 1) of 284 M⁻¹ s⁻¹. In addition, the kon2 (2:1 binding model, site 2) stood at 39000 M⁻¹ s⁻¹.

The substance “purified untagged Orai1 245–292 (from UniProt Q96D31 245-292) (domain or fragment)” registered a KD1 (2:1 binding model, site 1) of 314 nM; a KD2 (2:1 binding model, site 2) of 202 µM; a Kd of 0.548 µM; a koff of 0.000595 s⁻¹. The substance also gave a koff1 (2:1 binding model, site 1) of 0.000213 s⁻¹; a koff2 (2:1 binding model, site 2) of 0.0306 s⁻¹; a kon of 1080 M⁻¹ s⁻¹; a kon1 (2:1 binding model, site 1) of 678 M⁻¹ s⁻¹. Moreover, the kon2 (2:1 binding model, site 2) is 152 M⁻¹ s⁻¹.
